Data on one variant can be found in IntAct's records for PubMed 12732850.

First the molecules themselves.
B1: Humanin (Homo sapiens), Q8IVG9 (parent)
chain: MAPRGFSCLLLLTSEIDLPVKRRA

Variants of B1 are the subject of the assay. The settings on record: with bax_human BAX.
For C8P, the “effect of a mutation on the interaction” value is listed as “disrupting interaction strength”.
